The record followed here is patent US20210208163A1 (RUSH UNIVERSITY MEDICAL CENTER, published 2021).

Broadly, the Kd is a measure of binding affinity in units of concentration.

The labels stand for the following.
B4: human ICOSL (inducible co-stimulator ligand), full-length, isoform 1, N-terminal His-tag (ligand, not shown: small tags and cut ends)
chain: DTQEKEVRAMVGSDVELSCACPEGSRFDLNDVYVYWQTSESKTVVTYHIPQNSSLENVDSRYRNRALMSPAGMLRGDFSLRLFNVTPQDEQKFHCLVLSQSLGFQEVLSVEVTLHVAANFSVPVVSAPHSPSQDELTFTCTSINGYPRPNVYWINKTDNSLLDQALQNDTVFLNMRGLYDVVSVLRIARTPSVNIGCCIENVLLQQNLTVGSQTGNDIGERDKITENPVSTGEKNAAT
notes: The reagent list also names a bought human ICOSL-His Tag (Thermo Fisher 11559H08H50); also called hICOSL; B7h

In assay [1] the target is B4. Briefly: SPR. A general note: In SPR one partner is held on a chip, and binding of the other changes the refractive index at the surface.
Assay [2] addresses T1, recombinant mouse integrin αvβ3 (R&D Systems, 7889-AV-050) (mouse, UniProt P43406 31-988; O54890 26-717).
T1 construct: also called mouse αvβ3 integrin
Briefly: SPR, ICOSL immobilised, inactive αvβ3 (EDTA, no Mn2+), steady-state affinity fit.

For assay [3], the target named is T1, recombinant mouse integrin αvβ3 (R&D …). Nature of the assay: SPR, ICOSL immobilised, αvβ3 as analyte, 2 mM Ca2+ and 1 mM Mg2+ (inactive integrin).
Assay [4] has the same target. Nature of the assay: SPR, ICOSL immobilised, αvβ3 as analyte, 0.2 mM Ca2+ and 0.1 mM Mg2+, kinetic 1:1 fit.
The target is the same in assay [5]. Briefly: SPR (Biacore T200), ICOSL immobilised on CM5, αvβ3 as analyte, Mn2+ (active integrin), kinetic 1:1 Langmuir fit (kd/ka).
The target of assay [6] is T2, recombinant human integrin αvβ3 (R&D Systems, 3050-AV) (human, UniProt P06756 31-992; P05106 27-718).
T2 construct: Analyte in SPR; also called αvβ3 integrin
T2 sequence (P06756 31-992 limits assumed, chain 1 of 2): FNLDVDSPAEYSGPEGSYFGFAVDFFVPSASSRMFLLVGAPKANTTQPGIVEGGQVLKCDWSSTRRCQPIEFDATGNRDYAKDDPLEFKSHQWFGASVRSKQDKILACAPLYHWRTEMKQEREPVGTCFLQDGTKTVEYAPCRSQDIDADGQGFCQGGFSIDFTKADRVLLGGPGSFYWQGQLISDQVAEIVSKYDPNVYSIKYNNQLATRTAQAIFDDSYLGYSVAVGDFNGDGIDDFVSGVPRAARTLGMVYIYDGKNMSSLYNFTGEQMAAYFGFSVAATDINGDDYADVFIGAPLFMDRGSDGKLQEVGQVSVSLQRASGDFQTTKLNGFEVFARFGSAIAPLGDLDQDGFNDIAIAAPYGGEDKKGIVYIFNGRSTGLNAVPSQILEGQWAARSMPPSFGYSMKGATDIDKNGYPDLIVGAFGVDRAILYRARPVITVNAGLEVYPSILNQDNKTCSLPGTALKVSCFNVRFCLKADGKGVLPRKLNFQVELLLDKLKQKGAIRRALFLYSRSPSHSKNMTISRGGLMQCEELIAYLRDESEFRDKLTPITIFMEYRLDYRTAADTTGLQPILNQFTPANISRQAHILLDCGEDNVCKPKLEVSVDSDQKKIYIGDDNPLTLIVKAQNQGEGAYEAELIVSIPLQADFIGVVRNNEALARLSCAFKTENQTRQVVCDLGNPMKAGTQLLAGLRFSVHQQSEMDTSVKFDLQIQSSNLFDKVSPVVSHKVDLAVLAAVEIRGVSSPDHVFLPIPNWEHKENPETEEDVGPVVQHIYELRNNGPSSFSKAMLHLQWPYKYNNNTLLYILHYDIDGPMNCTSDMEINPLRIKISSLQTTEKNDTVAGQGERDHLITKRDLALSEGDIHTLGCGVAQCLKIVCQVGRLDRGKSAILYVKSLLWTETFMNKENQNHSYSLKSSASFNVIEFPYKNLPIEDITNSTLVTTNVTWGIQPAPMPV
T2 sequence (P05106 27-718 limits assumed, chain 2 of 2): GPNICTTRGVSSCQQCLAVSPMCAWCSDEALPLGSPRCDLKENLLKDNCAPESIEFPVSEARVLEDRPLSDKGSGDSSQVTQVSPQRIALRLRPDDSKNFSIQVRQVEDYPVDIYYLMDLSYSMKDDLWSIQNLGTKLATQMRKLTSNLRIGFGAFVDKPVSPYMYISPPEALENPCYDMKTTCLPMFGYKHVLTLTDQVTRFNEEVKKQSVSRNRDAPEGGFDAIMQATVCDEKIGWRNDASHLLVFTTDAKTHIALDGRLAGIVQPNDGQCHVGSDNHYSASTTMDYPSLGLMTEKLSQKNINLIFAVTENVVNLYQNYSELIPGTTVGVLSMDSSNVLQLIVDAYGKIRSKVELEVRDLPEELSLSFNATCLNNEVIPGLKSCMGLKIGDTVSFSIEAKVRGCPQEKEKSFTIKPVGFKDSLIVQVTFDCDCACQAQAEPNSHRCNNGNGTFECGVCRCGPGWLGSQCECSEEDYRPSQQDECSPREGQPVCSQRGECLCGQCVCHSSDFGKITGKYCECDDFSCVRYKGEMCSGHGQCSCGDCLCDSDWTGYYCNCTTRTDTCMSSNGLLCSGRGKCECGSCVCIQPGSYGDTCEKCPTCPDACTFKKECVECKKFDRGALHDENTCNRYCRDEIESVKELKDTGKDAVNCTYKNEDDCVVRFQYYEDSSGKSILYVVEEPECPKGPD
Briefly: SPR, Mn2+ (active integrin).

The target of assay [7] is T3, recombinant human integrin αIIbβ3 (R&D Systems, 7148-A2) (human, UniProt P08514 32-993; P05106 27-718).
T3 construct: also called αllbβ3
T3 sequence (P08514 32-993 limits assumed, chain 1 of 2): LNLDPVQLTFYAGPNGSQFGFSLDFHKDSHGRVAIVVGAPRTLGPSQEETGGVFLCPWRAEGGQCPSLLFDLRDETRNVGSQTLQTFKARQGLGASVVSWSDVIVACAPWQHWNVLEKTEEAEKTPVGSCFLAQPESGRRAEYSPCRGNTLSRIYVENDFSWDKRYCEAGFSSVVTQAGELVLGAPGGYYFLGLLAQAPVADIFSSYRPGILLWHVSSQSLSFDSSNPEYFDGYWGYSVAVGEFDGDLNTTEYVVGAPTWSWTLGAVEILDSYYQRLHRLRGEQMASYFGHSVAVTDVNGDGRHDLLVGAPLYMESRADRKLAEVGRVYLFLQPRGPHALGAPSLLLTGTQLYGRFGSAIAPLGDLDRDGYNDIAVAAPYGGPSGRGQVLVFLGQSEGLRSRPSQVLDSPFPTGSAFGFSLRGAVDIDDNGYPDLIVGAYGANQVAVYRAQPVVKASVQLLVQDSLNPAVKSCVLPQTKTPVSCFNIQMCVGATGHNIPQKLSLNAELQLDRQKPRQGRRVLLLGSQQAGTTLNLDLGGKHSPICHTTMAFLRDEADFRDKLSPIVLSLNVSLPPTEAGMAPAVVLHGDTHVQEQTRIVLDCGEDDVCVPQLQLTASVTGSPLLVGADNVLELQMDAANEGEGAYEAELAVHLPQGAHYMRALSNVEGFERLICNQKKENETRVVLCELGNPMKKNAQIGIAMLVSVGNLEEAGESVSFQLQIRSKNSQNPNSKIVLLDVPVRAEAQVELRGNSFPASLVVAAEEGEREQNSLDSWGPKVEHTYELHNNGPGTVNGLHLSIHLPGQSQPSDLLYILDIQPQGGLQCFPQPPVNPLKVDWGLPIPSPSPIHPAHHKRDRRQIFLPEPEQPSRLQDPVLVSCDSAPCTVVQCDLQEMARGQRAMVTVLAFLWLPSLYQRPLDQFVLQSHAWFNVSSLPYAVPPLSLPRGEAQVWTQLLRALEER
T3 sequence (P05106 27-718 limits assumed, chain 2 of 2): as the sequence (P05106 27-718 limits assumed, chain 2 of 2) above
Nature of the assay: SPR, ICOSL immobilised, integrin as analyte.

The target of assay [8] is recombinant human integrin αvβ5 (R&D Systems, 2528-AV) (human, UniProt P06756 31-992; P18084 24-719). Nature of the assay: SPR, ICOSL immobilised, integrin as analyte.
Sequence of recombinant human integrin αvβ5 (R&D Systems, 2528-AV) (P06756 31-992 limits assumed, chain 1 of 2): as the sequence (P06756 31-992 limits assumed, chain 1 of 2) above
Sequence of recombinant human integrin αvβ5 (R&D Systems, 2528-AV) (P18084 24-719 limits assumed, chain 2 of 2): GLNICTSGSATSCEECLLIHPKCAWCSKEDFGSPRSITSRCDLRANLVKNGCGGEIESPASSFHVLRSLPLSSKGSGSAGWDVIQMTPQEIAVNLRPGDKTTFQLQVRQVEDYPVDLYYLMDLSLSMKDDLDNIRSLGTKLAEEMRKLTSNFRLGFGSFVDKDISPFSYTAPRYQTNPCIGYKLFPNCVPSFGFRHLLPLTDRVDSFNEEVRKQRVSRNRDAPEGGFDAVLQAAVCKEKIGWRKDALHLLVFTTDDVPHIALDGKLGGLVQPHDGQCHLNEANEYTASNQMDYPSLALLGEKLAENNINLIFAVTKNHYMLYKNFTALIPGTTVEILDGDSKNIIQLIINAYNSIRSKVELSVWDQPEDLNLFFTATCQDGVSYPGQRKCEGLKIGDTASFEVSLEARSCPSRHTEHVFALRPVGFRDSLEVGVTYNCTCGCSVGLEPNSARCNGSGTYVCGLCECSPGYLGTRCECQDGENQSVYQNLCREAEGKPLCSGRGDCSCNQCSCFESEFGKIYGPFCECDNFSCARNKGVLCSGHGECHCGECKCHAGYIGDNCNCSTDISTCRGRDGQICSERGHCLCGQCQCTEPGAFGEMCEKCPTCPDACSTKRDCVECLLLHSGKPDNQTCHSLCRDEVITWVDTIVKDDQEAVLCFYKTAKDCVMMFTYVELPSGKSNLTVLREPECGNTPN
In assay [9] the target is T2, recombinant human integrin αvβ3 (R&D …). Briefly: SPR, ICOSL immobilised, inactive αvβ3 (EDTA, no Mn2+), steady-state affinity fit.
The target is the same in assay [10]. Briefly: SPR (Biacore T200), ICOSL immobilised on CM5, αvβ3 as analyte, Mn2+ (active integrin), kinetic 1:1 Langmuir fit (kd/ka).

T1 sequence (P43406 31-988 limits assumed, chain 1 of 2): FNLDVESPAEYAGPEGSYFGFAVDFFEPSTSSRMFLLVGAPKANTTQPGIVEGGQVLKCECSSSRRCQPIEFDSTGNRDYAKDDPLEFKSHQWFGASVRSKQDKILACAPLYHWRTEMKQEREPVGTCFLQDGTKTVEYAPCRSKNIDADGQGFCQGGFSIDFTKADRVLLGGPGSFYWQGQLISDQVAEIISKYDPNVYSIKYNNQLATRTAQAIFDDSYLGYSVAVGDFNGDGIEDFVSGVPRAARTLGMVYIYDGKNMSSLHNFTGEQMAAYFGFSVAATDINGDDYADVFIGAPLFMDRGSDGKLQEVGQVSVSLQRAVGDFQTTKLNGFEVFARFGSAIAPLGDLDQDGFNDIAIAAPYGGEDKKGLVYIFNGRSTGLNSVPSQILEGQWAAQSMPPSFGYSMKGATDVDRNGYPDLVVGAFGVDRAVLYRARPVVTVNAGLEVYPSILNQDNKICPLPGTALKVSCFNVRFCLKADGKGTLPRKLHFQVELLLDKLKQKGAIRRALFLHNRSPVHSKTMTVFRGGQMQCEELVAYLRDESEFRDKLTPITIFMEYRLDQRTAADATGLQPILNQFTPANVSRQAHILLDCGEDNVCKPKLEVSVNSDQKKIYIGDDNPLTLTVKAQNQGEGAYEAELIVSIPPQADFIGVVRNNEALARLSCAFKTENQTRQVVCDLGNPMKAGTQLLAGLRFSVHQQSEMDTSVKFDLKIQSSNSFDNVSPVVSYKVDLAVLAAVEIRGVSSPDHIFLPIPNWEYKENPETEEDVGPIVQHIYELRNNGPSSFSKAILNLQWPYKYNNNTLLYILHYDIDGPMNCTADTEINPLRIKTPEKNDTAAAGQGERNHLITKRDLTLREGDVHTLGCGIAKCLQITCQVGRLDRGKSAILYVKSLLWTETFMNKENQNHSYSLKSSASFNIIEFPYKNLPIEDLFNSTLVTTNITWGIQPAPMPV
T1 sequence (O54890 26-717 limits assumed, chain 2 of 2): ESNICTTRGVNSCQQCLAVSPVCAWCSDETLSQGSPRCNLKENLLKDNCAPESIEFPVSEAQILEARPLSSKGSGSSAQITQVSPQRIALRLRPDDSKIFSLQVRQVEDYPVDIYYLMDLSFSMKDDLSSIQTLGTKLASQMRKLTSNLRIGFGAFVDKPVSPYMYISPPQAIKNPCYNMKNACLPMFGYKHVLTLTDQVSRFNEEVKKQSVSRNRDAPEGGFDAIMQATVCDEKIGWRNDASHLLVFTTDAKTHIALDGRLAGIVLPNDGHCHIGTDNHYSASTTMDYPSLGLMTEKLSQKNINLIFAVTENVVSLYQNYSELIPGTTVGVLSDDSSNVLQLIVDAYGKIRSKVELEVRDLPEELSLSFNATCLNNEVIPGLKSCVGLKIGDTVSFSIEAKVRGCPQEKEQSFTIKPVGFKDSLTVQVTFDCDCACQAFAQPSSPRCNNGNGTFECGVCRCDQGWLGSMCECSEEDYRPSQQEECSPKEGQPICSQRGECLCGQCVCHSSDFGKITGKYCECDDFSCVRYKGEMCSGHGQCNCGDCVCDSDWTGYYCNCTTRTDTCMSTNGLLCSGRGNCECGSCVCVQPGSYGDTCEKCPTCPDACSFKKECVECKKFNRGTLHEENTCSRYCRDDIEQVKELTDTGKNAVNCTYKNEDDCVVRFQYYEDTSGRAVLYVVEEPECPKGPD

B1: recombinant human ICOS (R&D Systems, 169-CS) (receptor, UniProt Q9Y6W8 21-141, looked up)
chain: EINGSANYEMFIFHNGGVQILCKYPDIVQQFKMQLLKGGQILCDLTKTKGSGNTVSIKSLKFCHSQLSNNSVSFFLYNLDHSHANYYFCNLSIFDPPPFKVTLTGGYLHIYESQLCCQLKF
B1: the Kd in assay [1] came to 0.005 µM.

B2: mouse ICOSL, wild type (RGD), full-length, N-terminal His-tag (ligand, not shown: small tags and cut ends)
chain: ETEVGAMVGSNVVLSCIDPHRRHFNLSGLYVYWQIENPEVSVTYYLPYKSPGINVDSSYKNRGHLSLDSMKQGNFSLYLKNVTPQDTQEFTCRVFMNTATELVKILEEVVRLRVAANFSTPVISTSDSSNPGQERTYTCMSKNGYPEPNLYWINTTDNSLIDTALQNNTVYLNKLGLYDVISTLRLPWTSRGDVLCCVENVALHQNITSISQAESFTGNNTKNPQETHNNE
notes: also called mICOSL; WT mICOSL
For the molecule B2, the Kd in [2] was at least 2000 µM; in assay [3], 0.4 µM; in assay [4], 0.0213 µM; in assay [5] it was 0.0242 µM.

B3: recombinant human B7.1 (R&D Systems, 140-B1) (ligand, UniProt P33681 35-242, looked up)
chain: VIHVTKEVKEVATLSCGHNVSVEELAQTRIYWQKEKKMVLTMMSGDMNIWPEYKNRTIFDITNNLSIVILALRPSDEGTYECVVLKYEKDAFKREHLAEVTLSVKADFPTPSISDFEIPTSNIRRIICSTSGGFPEPHLSWLENGEELNAINTTVSQDPETELYAVSSKLDFNMTTNHSFMCLIKYGHLRVNQTFNWNTTKQEHFPDN
notes: also called RGD-lacking B7.1
Regarding B3, the binding result in [6] was “no binding”.
With B4, the binding result in [7] and in [8] was “no binding” throughout. Further, the Kd in [9] came out at 0.412 µM; in [10] it was 0.0162 µM.
